What was measured:
Assay in all cases: ELISA
[1] = target: Human FcRIIA[R]
[2] = target: Human FcRIIB
[3] = target: Mouse FcRI
[4] = target: Human FcRIIA[H] (human) (UniProt P12318)
[5] = target: Mouse FcRIIB
[6] = target: Mouse FcRIV
[7] = target: Human FcRn
[8] = target: Human FcR1 (human) (UniProt P12314)
[9] = target: Human FcRIII (human)
Chain of Human FcRIII (human) (P08637 17-208): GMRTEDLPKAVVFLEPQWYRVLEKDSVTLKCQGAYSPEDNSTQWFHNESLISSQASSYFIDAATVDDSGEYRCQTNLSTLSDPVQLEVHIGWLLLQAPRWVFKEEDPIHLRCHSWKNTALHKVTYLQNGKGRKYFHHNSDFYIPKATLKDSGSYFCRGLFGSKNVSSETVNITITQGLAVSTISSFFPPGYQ

Chain of Mouse FcRIV (A0A0B4J1G0 21-203): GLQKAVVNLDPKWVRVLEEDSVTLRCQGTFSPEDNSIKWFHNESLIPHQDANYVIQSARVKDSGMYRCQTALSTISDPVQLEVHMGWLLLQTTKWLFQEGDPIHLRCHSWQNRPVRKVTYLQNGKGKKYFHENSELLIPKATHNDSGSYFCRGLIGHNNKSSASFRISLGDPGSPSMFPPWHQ
Chain of Human FcRIIA[H] (human) (P12318 34-217): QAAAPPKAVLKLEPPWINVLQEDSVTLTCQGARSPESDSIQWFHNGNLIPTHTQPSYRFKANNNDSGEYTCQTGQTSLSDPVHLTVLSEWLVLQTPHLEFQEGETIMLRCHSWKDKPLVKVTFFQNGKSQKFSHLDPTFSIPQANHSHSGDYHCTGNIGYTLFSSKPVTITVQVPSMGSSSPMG
Chain of Human FcR1 (human) (P12314 16-292): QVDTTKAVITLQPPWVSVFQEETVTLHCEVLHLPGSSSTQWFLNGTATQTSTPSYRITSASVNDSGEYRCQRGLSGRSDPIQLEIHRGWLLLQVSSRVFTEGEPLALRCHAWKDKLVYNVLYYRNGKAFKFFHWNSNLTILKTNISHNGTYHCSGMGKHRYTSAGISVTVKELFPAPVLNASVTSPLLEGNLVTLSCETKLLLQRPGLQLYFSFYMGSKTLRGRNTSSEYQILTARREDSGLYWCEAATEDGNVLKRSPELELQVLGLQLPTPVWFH

Kd [1]: 200 nM
Kd [2]: 876 nM
Kd [3]: 1.33 nM
Kd [4]: 333 nM
Kd [5]: 375 nM
Kd [6]: 6.52 nM
Kd [7]: 14 nM
Kd [8]: 0.161 nM
Kd [9]: 1180 nM
Substance: IgG1

Reference: patent publication US20190111115A1
